Assay results reported in patent US20040086502A1 (Genentech, published 2004).

B1: Y0239-19 Fab (Fab, V domains shown)
VH: EVQLVESGGGLVQPGGSLRLSCAASGYTFTNYGMNWVRQAPGKGLEWVGWINTYTGEPTYAADFKRRFTFSLDTSKSTAYLQMNSLRAEDTAVYYCAKYPHYYVNERKSHWYFDVWGQGTL
VL: DIQLTQSPSSLSASVGDRVTITCRANEQLSNYLNWYQQKPGKAPKVLIYFTSSLHSGVPSRFSGSGSGTDFTLTISSLQPEDFATYYCQQYSTVPWTFGQGTKVEIKR
notes: also called insertion variant with the VNERK motif
B2: Y0239-8 Fab (Fab, V domains shown)
VH: EVQLVESGGGLVQPGGSLRLSCAASGYTFTNYGMNWVRQAPGKGLEWVGWINTYTGEPTYAADFKRRFTFSLDTSKSTAYLQMNSLRAEDTAVYYCAKYPHYYLRDGRSSHWYFDVWGQGTL
VL: DIQLTQSPSSLSASVGDRVTITCRANEQLSNYLNWYQQKPGKAPKVLIYFTSSLHSGVPSRFSGSGSGTDFTLTISSLQPEDFATYYCQQYSTVPWTFGQGTKVEIKR
B3: Y0239-9 Fab (Fab, V domains shown)
VH: EVQLVESGGGLVQPGGSLRLSCAASGYTFTNYGMNWVRQAPGKGLEWVGWINTYTGEPTYAADFKRRFTFSLDTSKSTAYLQMNSLRAEDTAVYYCAKYPHYYLGESSHWYFDVWGQGTL
VL: DIQLTQSPSSLSASVGDRVTITCRANEQLSNYLNWYQQKPGKAPKVLIYFTSSLHSGVPSRFSGSGSGTDFTLTISSLQPEDFATYYCQQYSTVPWTFGQGTKVEIKR
notes: Only three residues stand in place of G104, although the library was designed with four or five
B4: Y0313-2 Fab (Fab, V domains shown)
VH: EVQLVESGGGLVQPGGSLRLSCAASGYDFTHYGMNWVRQAPGKGLEWVGWINTYTGEPTYAADFKRRFTFSLDTSKSTAYLQMNSLRAEDTAVYYCAKYPHYYVNERKSHWYFDVWGQGTL
VL: DIQLTQSPSSLSASVGDRVTITCRANEQLSNYLNWYQQKPGKAPKVLIYFTSSLHSGVPSRFSGSGSGTDFTLTISSLQPEDFATYYCQQYSTVPWTFGQGTKVEIKR
notes: Combines the CDR H3 insertion of Y0239-19 (VNERK) with T28D/N31H; also called CDR combination variant Y0313-2; Insert-Fab Y0313-2
B5: Y0239-12 Fab (Fab, V domains shown)
VH: EVQLVESGGGLVQPGGSLRLSCAASGYTFTNYGMNWVRQAPGKGLEWVGWINTYTGEPTYAADFKRRFTFSLDTSKSTAYLQMNSLRAEDTAVYYCAKYPHYYAHEKKSHWYFDVWGQGTL
VL: DIQLTQSPSSLSASVGDRVTITCRANEQLSNYLNWYQQKPGKAPKVLIYFTSSLHSGVPSRFSGSGSGTDFTLTISSLQPEDFATYYCQQYSTVPWTFGQGTKVEIKR
B6: Y0242-1 Fab (Fab, V domains shown)
VH: EVQLVESGGGLVQPGGSLRLSCAASGYTFTNYGMNWVRQAPGKGLEWVGWINTWTGEPTYAADFKRRFTFSLDTSKSTAYLQMNSLRAEDTAVYYCAKYPHYYGSSHWYFDVWGQGTL
VL: DIQLTQSPSSLSASVGDRVTITCRANEQLSNYLNWYQQKPGKAPKVLIYFTSSLHSGVPSRFSGSGSGTDFTLTISSLQPEDFATYYCQQYSTVPWTFGQGTKVEIKR
notes: Clone from library YC-90, made on the Y0192 template; also called point mutant Y54W
B7: Y0240-1 Fab (Fab, V domains shown)
VH: EVQLVESGGGLVQPGGSLRLSCAASGYTFTNYGMNWVRQAPGKGLEWVGWINTYTGEPTYAADFKRRFTFSLDTSKSTAYLQMNSLRAEDTAVYYCAKYPHYYLTDHKSHWYFDVWGQGTL
VL: DIQLTQSPSSLSASVGDRVTITCRANEQLSNYLNWYQQKPGKAPKVLIYFTSSLHSGVPSRFSGSGSGTDFTLTISSLQPEDFATYYCQQYSTVPWTFGQGTKVEIKR
B8: Y0241-7 Fab (Fab, V domains shown)
VH: EVQLVESGGGLVQPGGSLRLSCAASGYDWTNYGINWVRQAPGKGLEWVGWINTYTGEPTYAADFKRRFTFSLDTSKSTAYLQMNSLRAEDTAVYYCAKYPHYYGSSHWYFDVWGQGTL
VL: DIQLTQSPSSLSASVGDRVTITCRANEQLSNYLNWYQQKPGKAPKVLIYFTSSLHSGVPSRFSGSGSGTDFTLTISSLQPEDFATYYCQQYSTVPWTFGQGTKVEIKR
notes: Clone from library YC-86, made on the Y0192 template; The text names point mutations only at T28 and F29; The printed stretch ends in GIN, so residue 34 may also differ from the parent; this change is not applied here
B9: Y0261-6 Fab (Fab, V domains shown)
VH: EVQLVESGGGLVQPGGSLRLSCAASGYTFTNYGMNWVRQAPGKGLEWVGWINTYTGEPTYAADFKRRFTFSLDTSKSTAYLQMNSLRAEDTAVYYCAKYPHYYLKDKKSHWYFDVWGQGTL
VL: DIQLTQSPSSLSASVGDRVTITCRANEQLSNYLNWYQQKPGKAPKVLIYFTSSLHSGVPSRFSGSGSGTDFTLTISSLQPEDFATYYCQQYSTVPWTFGQGTKVEIKR
B10: Y0241-6 Fab (Fab, V domains shown)
VH: EVQLVESGGGLVQPGGSLRLSCAASGYDYTNYGINWVRQAPGKGLEWVGWINTYTGEPTYAADFKRRFTFSLDTSKSTAYLQMNSLRAEDTAVYYCAKYPHYYGSSHWYFDVWGQGTL
VL: DIQLTQSPSSLSASVGDRVTITCRANEQLSNYLNWYQQKPGKAPKVLIYFTSSLHSGVPSRFSGSGSGTDFTLTISSLQPEDFATYYCQQYSTVPWTFGQGTKVEIKR
notes: as for B8
B11: Y0239-2 Fab (Fab, V domains shown)
VH: EVQLVESGGGLVQPGGSLRLSCAASGYTFTNYGMNWVRQAPGKGLEWVGWINTYTGEPTYAADFKRRFTFSLDTSKSTAYLQMNSLRAEDTAVYYCAKYPHYYKNDKSSHWYFDVWGQGTL
VL: DIQLTQSPSSLSASVGDRVTITCRANEQLSNYLNWYQQKPGKAPKVLIYFTSSLHSGVPSRFSGSGSGTDFTLTISSLQPEDFATYYCQQYSTVPWTFGQGTKVEIKR

Legend:
VEGF(8-109) [1] = biological target: T1, VEGF(8-109) (UniProt P15692 214-315); experiment: SPR (BIACORE-2000), Fab injected over immobilised VEGF(8-109), 25 C
T1 construct: range 8-109; Covalently coupled to the BIACORE chip (EDC/NHS); also called vascular endothelial growth factor
T1 sequence (looked up): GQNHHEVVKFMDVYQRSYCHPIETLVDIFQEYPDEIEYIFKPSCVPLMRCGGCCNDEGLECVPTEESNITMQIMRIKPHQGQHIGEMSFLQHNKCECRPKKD
Method: (§1) BIACORE™ Analysis: The VEGF-binding affinities of Fab fragments were calculated from association and dissociation rate constants measured using a BIACORE™-2000 surface plasmon resonance system (BIACORE™, Inc., Piscataway, N.J.). A biosensor chip was activated for covalent coupling of VEGF using N-ethyl-N′-(3-dimethylaminopropyl)-carbodiimide hydrochloride (EDC) and N-hydroxysuccinimide (NHS) according to the supplier's (BIACORE™, Inc., Piscataway, N.J.) instructions. VEGF(8-109) was buffered exchanged into 20 mM sodium acetate, pH 4.8 and diluted to approximately 50 μg/mL. Aliquots of VEGF were injected at a flow rate of 2 μL/min to achieve approximately 700-1400 response units (RU) of coupled protein. A solution of 1 M ethanolamine was injected as a blocking agent.
(§2) For kinetics measurements, two-fold serial dilutions of Fab were injected in PBS/TWEEN buffer (0.05% TWEEN 20™ in phosphate buffered saline) at 25° C. at a flow rate of 10 μL/min. Equilibrium dissociation constants, Kd's from SPR measurements were calculated as koff/kon (Table 17).

VEGF(8-109) [2] = biological target: T1, VEGF(8-109); experiment: SPR (BIACORE-2000); reference (wt) is Y0192
Method: as §1, §2

VEGF(8-109) [3] = biological target: T1, VEGF(8-109); experiment: SPR (BIACORE-2000), Kd calculated as koff/kon
Method: as §1, §2

[4] = biological target: T2, VEGF (recombinant; version 1-165) (UniProt P15692 27-191); experiment: cell-based or functional assay
T2 sequence (P15692 other isoform, or with tags, fused parts or gaps limits assumed): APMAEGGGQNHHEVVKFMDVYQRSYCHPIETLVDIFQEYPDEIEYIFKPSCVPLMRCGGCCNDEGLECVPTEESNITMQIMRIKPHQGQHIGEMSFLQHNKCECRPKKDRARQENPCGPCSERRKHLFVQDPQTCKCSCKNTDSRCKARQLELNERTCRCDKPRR

[5] = biological target: T2, VEGF (recombinant; version 1-165); experiment: cell-based or functional assay; remark: listed apart in the source

| koff (VEGF(8-109) [1]) [s⁻¹] | kon (VEGF(8-109) [1]) [M⁻¹ s⁻¹] | Kd(wt)/Kd(mut) (VEGF(8-109) [2]) [ratio] | Kd (VEGF(8-109) [3]) [nM] | inhibition of VEGF-induced growth of HuVECs (alamar blue assay) [4] [fold] | IC50 (read off the curve); VEGF-induced HuVEC growth, alamar blue [5] [ng/mL] | Binder |
| --- | --- | --- | --- | --- | --- | --- |
| ≤ 1e-05 | 36000 | 9.7 | ≤ 0.3 | – | – | B1 |
| 1.8e-05 | 38000 | 5.8 | 0.5 | – | – | B2 |
| 1.9e-05 | 39700 | 6 | 0.5 | – | – | B3 |
| 1.1e-05 | 31100 | 8 | 0.36 | ~100 | ~3 | B4 |
| 3.4e-05 | 57000 | 4.8 | 0.6 | – | – | B5 |
| 8.6e-05 | 47000 | 1.6 | 1.8 | – | – | B6 |
| 1.3e-05 | 25000 | 5.8 | 0.5 | – | – | B7 |
| 0.000128 | 46000 | 1 | 3 | – | – | B8 |
| 2.5e-05 | 44000 | 5 | 0.6 | – | – | B9 |
| 0.000129 | 47000 | 1.1 | 2.7 | – | – | B10 |
| 0.000164 | 36000 | 0.6 | 4.6 | – | – | B11 |
